Values joined by “and” are separate entries in the source; they are usually repeats but may differ in a detail not shown here. Equal entries are not always repeated. Where two headings read alike, the source gives them in different places.
B1: Ab8 IgM (antibody)
VH: EVQLVESGGGLIQPGGSLRLSCAASGFTVSRNYMNWVRQAPGKGLEWVSVIYSGGSTFYADSVKGRFTISRDNSKNTLYLQMNSLRAEDTAVYYCARDASSYGIDWGQGTLVTVSS
VL: not shown
chain: not shown
B2: Ab8 IgG (antibody, V domains shown)
VH: EVQLVESGGGLIQPGGSLRLSCAASGFTVSRNYMNWVRQAPGKGLEWVSVIYSGGSTFYADSVKGRFTISRDNSKNTLYLQMNSLRAEDTAVYYCARDASSYGIDWGQGTLVTVSS
VL: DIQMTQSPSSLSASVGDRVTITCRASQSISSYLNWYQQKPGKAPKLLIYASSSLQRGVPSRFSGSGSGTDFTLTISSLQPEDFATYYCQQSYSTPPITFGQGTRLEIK
B3: Ab10 IgM (antibody)
VH: QITLKESGPTLVKPTQTLTLTCTFSGFSLSTSGVGVGWIRQPPGKALEWLALIYWDDDKRYSPSLKSRLTITKDTSKNQVVLTMTNMDPVDTATYYCAHHKIERIFDYWGQGTLVTVSS
VL: QSALAQPASVSGSPGQSITISCTGTSSDVGAYNYVSWYQQHPGKAPKLMIYDVSKRPSGVSNRFSGSKSGNTASLTISGLQAEDEADYYCSSYTTSSTVFGGGTKLTVL
chain: not shown
B4: Ab10 IgG (antibody, V domains shown)
VH: QITLKESGPTLVKPTQTLTLTCTFSGFSLSTSGVGVGWIRQPPGKALEWLALIYWDDDKRYSPSLKSRLTITKDTSKNQVVLTMTNMDPVDTATYYCAHHKIERIFDYWGQGTLVTVSS
VL: QSALAQPASVSGSPGQSITISCTGTSSDVGAYNYVSWYQQHPGKAPKLMIYDVSKRPSGVSNRFSGSKSGNTASLTISGLQAEDEADYYCSSYTTSSTVFGGGTKLTVL
B5: Ab7 IgM (antibody)
VH: EVQLVESGGGLVQPGGSLRLSCAVSGFTVSSNYMSWVRQAPGKGLEWVSVIYTGGGTYYADSVKGRFTISRDNSKNTLYLQMNTLRAEDTTVYYCARGDGSYYRAFDYWGQGTLVTVSS
VL: DIQMTQSPSSLSASVGDRVTITCRASQSISNYLNWYHQKPGKAPKLLIYAASSLQSGVPSRFSGSGSGTDFTLTISSLQPEDFATYYCQQSYSPPPTFGPGTKVEIK
chain: not shown
B6: Ab7 IgG (antibody, V domains shown)
VH: EVQLVESGGGLVQPGGSLRLSCAVSGFTVSSNYMSWVRQAPGKGLEWVSVIYTGGGTYYADSVKGRFTISRDNSKNTLYLQMNTLRAEDTTVYYCARGDGSYYRAFDYWGQGTLVTVSS
VL: DIQMTQSPSSLSASVGDRVTITCRASQSISNYLNWYHQKPGKAPKLLIYAASSLQSGVPSRFSGSGSGTDFTLTISSLQPEDFATYYCQQSYSPPPTFGPGTKVEIK

How the values were obtained:
SARS-CoV-2 RBD K417E [1] = target: T1, SARS-CoV-2 RBD K417E (SARS-CoV-2, UniProt P0DTC2 319-541); assay: BLI, RBD on anti-Penta-His sensor
SARS-CoV-2 RBD G446V [2] = target: T2, SARS-CoV-2 RBD G446V (SARS-CoV-2, UniProt P0DTC2 319-541); assay: BLI, RBD on anti-Penta-His sensor
SARS-CoV-2 RBD Y453F [3] = target: T3, SARS-CoV-2 RBD Y453F (SARS-CoV-2, UniProt P0DTC2 319-541); assay: BLI, RBD on anti-Penta-His sensor
SARS-CoV-2 RBD E484K [4] = target: T4, SARS-CoV-2 RBD E484K (SARS-CoV-2, UniProt P0DTC2 319-541); assay: BLI, RBD on anti-Penta-His sensor
SARS-CoV-2 RBD K417E [5] = target: T1, SARS-CoV-2 RBD K417E; assay: BLI, blocking of ACE2-Fc binding to RBD
SARS-CoV-2 RBD G446V [6] = target: T2, SARS-CoV-2 RBD G446V; assay: BLI, blocking of ACE2-Fc binding to RBD
SARS-CoV-2 RBD Y453F [7] = target: T3, SARS-CoV-2 RBD Y453F; assay: BLI, blocking of ACE2-Fc binding to RBD
SARS-CoV-2 RBD E484K [8] = target: T4, SARS-CoV-2 RBD E484K; assay: BLI, blocking of ACE2-Fc binding to RBD
SARS-CoV-2 RBD K417E [9] = target: T1, SARS-CoV-2 RBD K417E; assay: BLI, RBD on anti-Penta-His sensor; remark: listed apart in the source
SARS-CoV-2 RBD G446V [10] = target: T2, SARS-CoV-2 RBD G446V; assay: BLI, RBD on anti-Penta-His sensor; remark: listed apart in the source
SARS-CoV-2 RBD Y453F [11] = target: T3, SARS-CoV-2 RBD Y453F; assay: BLI, RBD on anti-Penta-His sensor; remark: listed apart in the source
SARS-CoV-2 RBD E484K [12] = target: T4, SARS-CoV-2 RBD E484K; assay: BLI, RBD on anti-Penta-His sensor; remark: listed apart in the source
SARS-CoV-2 RBD K417E [13] = target: T1, SARS-CoV-2 RBD K417E; assay: BLI, blocking of ACE2-Fc binding to RBD; remark: listed apart in the source
SARS-CoV-2 RBD G446V [14] = target: T2, SARS-CoV-2 RBD G446V; assay: BLI, blocking of ACE2-Fc binding to RBD; remark: listed apart in the source
SARS-CoV-2 RBD Y453F [15] = target: T3, SARS-CoV-2 RBD Y453F; assay: BLI, blocking of ACE2-Fc binding to RBD; remark: listed apart in the source
SARS-CoV-2 RBD E484K [16] = target: T4, SARS-CoV-2 RBD E484K; assay: BLI, blocking of ACE2-Fc binding to RBD; remark: listed apart in the source
SARS-CoV-2 RBD K417E [17] = target: T1, SARS-CoV-2 RBD K417E; assay: BLI, RBD on anti-Penta-His sensor; remark: listed apart in the source
SARS-CoV-2 RBD G446V [18] = target: T2, SARS-CoV-2 RBD G446V; assay: BLI, RBD on anti-Penta-His sensor; remark: listed apart in the source
SARS-CoV-2 RBD Y453F [19] = target: T3, SARS-CoV-2 RBD Y453F; assay: BLI, RBD on anti-Penta-His sensor; remark: listed apart in the source
SARS-CoV-2 RBD E484K [20] = target: T4, SARS-CoV-2 RBD E484K; assay: BLI, RBD on anti-Penta-His sensor; remark: listed apart in the source
SARS-CoV-2 RBD K417E [21] = target: T1, SARS-CoV-2 RBD K417E; assay: BLI, blocking of ACE2-Fc binding to RBD; remark: listed apart in the source
SARS-CoV-2 RBD G446V [22] = target: T2, SARS-CoV-2 RBD G446V; assay: BLI, blocking of ACE2-Fc binding to RBD; remark: listed apart in the source
SARS-CoV-2 RBD Y453F [23] = target: T3, SARS-CoV-2 RBD Y453F; assay: BLI, blocking of ACE2-Fc binding to RBD; remark: listed apart in the source
SARS-CoV-2 RBD E484K [24] = target: T4, SARS-CoV-2 RBD E484K; assay: BLI, blocking of ACE2-Fc binding to RBD; remark: listed apart in the source

Binder	Kd (SARS-CoV-2 RBD K417E [1])	Kd (SARS-CoV-2 RBD G446V [2])	Kd (SARS-CoV-2 RBD Y453F [3])	Kd (SARS-CoV-2 RBD E484K [4])	IC50 (SARS-CoV-2 RBD K417E [5])	IC50 (SARS-CoV-2 RBD G446V [6])	IC50 (SARS-CoV-2 RBD Y453F [7])	IC50 (SARS-CoV-2 RBD E484K [8])	Kd (SARS-CoV-2 RBD K417E [9])	Kd (SARS-CoV-2 RBD G446V [10])	Kd (SARS-CoV-2 RBD Y453F [11])	Kd (SARS-CoV-2 RBD E484K [12])	IC50 (SARS-CoV-2 RBD K417E [13])	IC50 (SARS-CoV-2 RBD G446V [14])	IC50 (SARS-CoV-2 RBD Y453F [15])	IC50 (SARS-CoV-2 RBD E484K [16])	Kd (SARS-CoV-2 RBD K417E [17])	Kd (SARS-CoV-2 RBD G446V [18])	Kd (SARS-CoV-2 RBD Y453F [19])	IC50 (SARS-CoV-2 RBD K417E [21])	other results
B1	< 1 pM	< 1 pM	< 1 pM	< 1 pM	1 µg/mL and 1.2 nM	0.78 µg/mL and 0.9 nM	0.98 µg/mL and 1.1 nM	1.3 µg/mL and 1.5 nM	–	–	–	–	–	–	–	–	–	–	–	–	–
B2	2000 pM	< 1 pM	< 1 pM	< 1 pM	1 µg/mL and 7.2 nM	0.88 µg/mL and 6.1 nM	1 µg/mL and 7.2 nM	2.8 µg/mL and 19 nM	–	–	–	–	–	–	–	–	–	–	–	–	–
B3	–	–	–	–	–	–	–	–	< 1 pM	110 pM	< 1 pM	< 1 pM	0.32 nM and 0.28 µg/mL	5 nM and 4.3 µg/mL	0.49 nM and 0.42 µg/mL	0.47 nM and 0.41 µg/mL	–	–	–	–	–
B4	–	–	–	–	–	–	–	–	< 1 pM	120000 pM	< 1 pM	< 1 pM	3.8 nM and 0.55 µg/mL	> 69 nM and > 10 µg/mL	8.6 nM and 1.2 µg/mL	10 nM and 1.5 µg/mL	–	–	–	–	–
B5	–	–	–	–	–	–	–	–	–	–	–	–	–	–	–	–	< 1 pM	< 1 pM	< 1 pM	0.36 nM and 0.31 µg/mL	Kd (SARS-CoV-2 RBD E484K [20]): 7 pM; IC50 (SARS-CoV-2 RBD G446V [22]): 0.32 nM and 0.28 µg/mL; IC50 (SARS-CoV-2 RBD Y453F [23]): 0.42 nM and 0.36 µg/mL; IC50 (SARS-CoV-2 RBD E484K [24]): 0.87 nM and 0.76 µg/mL
B6	–	–	–	–	–	–	–	–	–	–	–	–	–	–	–	–	< 1 pM	< 1 pM	< 1 pM	2.4 nM and 0.35 µg/mL	IC50 (SARS-CoV-2 RBD G446V [22]): 2.1 nM and 0.3 µg/mL; IC50 (SARS-CoV-2 RBD Y453F [23]): 3.2 nM and 0.46 µg/mL; IC50 (SARS-CoV-2 RBD E484K [24]): > 69 nM and > 10 µg/mL

Reference: US20220403009A1 (IGM BIOSCIENCES, published 2022)
